This assay deals with Omicron BA.1 spike RBD (UniProt P0DTC2) (SARS-CoV-2) (UniProt P0DTC2). The assay can be described thus: microfluidic diffusional sizing (MDS).
As for Casirivimab (antibody), the fold reduction of binding affinity relative to wild type RBD is greater than 100 fold.
Next, Cilgavimab Biosimilar (antibody): greater than 100 fold; Tixagevimab Biosimilar (antibody): greater than 100 fold.
